The results in this text go back to the RNAGym collection of RNA variant scans (doi:10.1093/molbev/msab373).

B1: Azoarcus group I ribozyme (parent)
chain: GUGCCUUGCGCCGGGAAACCACGCAAGGGAUGGUGUCAAAUUCGGCGAAACCUAAGCGCCCGCCCGGGCGUAUGGCAACGCCGAGCCAAGCUUCGGCGCCUGCGCCGAUGAAGGUGUAGAGACUAGACGGCACCCACCUAAGGCAAACGCUAUGGUGAAGGCAUAGUCCAGGGAGUGGCGAAAGUCACACAAACCGG

In the data set the parent is B1. Briefly: reverse-splicing fitness (ratio to wild type); higher = more active; in vitro selection; Mg2+ level not given. A digest of the protocol:
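An in vitro group I ribozyme library with randomized positions was T7-transcribed and gel-purified. In triplicate, 10 pmol RNA in EPPS pH 7.5 was reacted with 50 pmoles of a 30-nt RNA substrate for 1 h at 37 °C across several added MgCl2 levels (1–48 mM), then stopped with EDTA. Products were reverse transcribed from a substrate-complementary primer, PCR-amplified and sequenced (HiSeq 4000). Fitness is a variant's read proportion after selection over that before, normalised to wild type.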
Turning to GUGCCUUGCGCCGGGAAACCACGCAAGGGAUGGUGUCAAAUUCGGCGAAACCUAAGCGCCCGCCCGGGCGUAUGGCAACGCUGAGCCAAGCUUCGGCGCCUGCGCCGAUGCAGGUGUAGUGACUAGACGGCACCCACCUAAGGCGAACGAUAUGGUGAAGGCAUAGUCCAGGGAGCGGCGAAAGUCACACAAACCGG [C82U A111C A120U A145G C150A U176C], the reverse-splicing fitness is 0.00717.

For the variant GUGCCUUGCGCCGGGAAACCACGCAAGGGAUGGUGUCAAAUUCGGCGAAACCUAAGCGCCCGCCCGGGCGUAUGGCAACGCGGAGCCAAGCUUCGGCGCCUGCGCCGAUGGAGGUGUAGGGACUAGACGGCACCCACCUAAGGCCAACGUUAUGGUGAAGGCAUAGUCUAGGGAGCGGCGAAAGUCACACAAACCGG [C82G A111G A120G A145C C150U C169U U176C], the reverse-splicing fitness worked out at 0.0151.

With GUGCCUUGCGCCGGGAAACCACGCAAGGGAUGGUGUCAAAUUCGGCGAAACCUAAGCGCCCGCCCGGGCGUAUGGCAACGCAGAGCCAAGCUUCGGCGCCUGCGCCGAUGGAGGUGUAGUGACUAGACGGCACCCACCUAAGGCUAACGGUAUGGUGAAGGCAUAGUCGAGGGAGAGGCGAAAGUCACACAAACCGG [C82A A111G A120U A145U C150G C169G U176A], the reverse-splicing fitness is 0.00352.

For the variant GUGCCUUGCGCCGGGAAACCACGCAAGGGAUGGUGUCAAAUUCGGCGAAACCUAAGCGCCCGCCCGGGCGUAUGGCAACGCUGAGCCAAGCUUCGGCGCCUGCGCCGAUGAAGGUGUAGGGACUAGACGGCACCCACCUAAGGCCAACGUUAUGGUGAAGGCAUAGUCUAGGGAGGGGCGAAAGUCACACAAACCGG [C82U A120G A145C C150U C169U U176G], the reverse-splicing fitness stood at 0.00351.

Regarding GUGCCUUGCGCCGGGAAACCACGCAAGGGAUGGUGUCAAAUUCGGCGAAACCUAAGCGCCCGCCCGGGCGUAUGGCAACGCAGAGCCAAGCUUCGGCGCCUGCGCCGAUGUAGGUGUAGAGACUAGACGGCACCCACCUAAGGCUAACGCUAUGGUGAAGGCAUAGUCAAGGGAGUGGCGAAAGUCACACAAACCGG [C82A A111U A145U C169A], the reverse-splicing fitness was 0.00911.

On to GUGCCUUGCGCCGGGAAACCACGCAAGGGAUGGUGUCAAAUUCGGCGAAACCUAAGCGCCCGCCCGGGCGUAUGGCAACGCAGAGCCAAGCUUCGGCGCCUGCGCCGAUGUAGGUGUAGCGACUAGACGGCACCCACCUAAGGCGAACGGUAUGGUGAAGGCAUAGUCAAGGGAGUGGCGAAAGUCACACAAACCGG [C82A A111U A120C A145G C150G C169A], for which the reverse-splicing fitness worked out at 0.00936.

Regarding GUGCCUUGCGCCGGGAAACCACGCAAGGGAUGGUGUCAAAUUCGGCGAAACCUAAGCGCCCGCCCGGGCGUAUGGCAACGCAGAGCCAAGCUUCGGCGCCUGCGCCGAUGGAGGUGUAGCGACUAGACGGCACCCACCUAAGGCCAACGAUAUGGUGAAGGCAUAGUCCAGGGAGAGGCGAAAGUCACACAAACCGG [C82A A111G A120C A145C C150A U176A], the reverse-splicing fitness turned out to be 0.0102.

As for GUGCCUUGCGCCGGGAAACCACGCAAGGGAUGGUGUCAAAUUCGGCGAAACCUAAGCGCCCGCCCGGGCGUAUGGCAACGCCGAGCCAAGCUUCGGCGCCUGCGCCGAUGCAGGUGUAGCGACUAGACGGCACCCACCUAAGGCAAACGGUAUGGUGAAGGCAUAGUCAAGGGAGUGGCGAAAGUCACACAAACCGG [A111C A120C C150G C169A], the reverse-splicing fitness came out at 0.00914.

In the case of GUGCCUUGCGCCGGGAAACCACGCAAGGGAUGGUGUCAAAUUCGGCGAAACCUAAGCGCCCGCCCGGGCGUAUGGCAACGCGGAGCCAAGCUUCGGCGCCUGCGCCGAUGGAGGUGUAGAGACUAGACGGCACCCACCUAAGGCAAACGAUAUGGUGAAGGCAUAGUCCAGGGAGCGGCGAAAGUCACACAAACCGG [C82G A111G C150A U176C], the reverse-splicing fitness worked out at 0.0385.

As to GUGCCUUGCGCCGGGAAACCACGCAAGGGAUGGUGUCAAAUUCGGCGAAACCUAAGCGCCCGCCCGGGCGUAUGGCAACGCCGAGCCAAGCUUCGGCGCCUGCGCCGAUGCAGGUGUAGAGACUAGACGGCACCCACCUAAGGCCAACGGUAUGGUGAAGGCAUAGUCAAGGGAGUGGCGAAAGUCACACAAACCGG [A111C A145C C150G C169A], the reverse-splicing fitness turned out to be 0.00983.

For the variant GUGCCUUGCGCCGGGAAACCACGCAAGGGAUGGUGUCAAAUUCGGCGAAACCUAAGCGCCCGCCCGGGCGUAUGGCAACGCGGAGCCAAGCUUCGGCGCCUGCGCCGAUGGAGGUGUAGGGACUAGACGGCACCCACCUAAGGCGAACGGUAUGGUGAAGGCAUAGUCAAGGGAGAGGCGAAAGUCACACAAACCGG [C82G A111G A120G A145G C150G C169A U176A], the reverse-splicing fitness was determined as 0.0146.

In the case of GUGCCUUGCGCCGGGAAACCACGCAAGGGAUGGUGUCAAAUUCGGCGAAACCUAAGCGCCCGCCCGGGCGUAUGGCAACGCCGAGCCAAGCUUCGGCGCCUGCGCCGAUGAAGGUGUAGGGACUAGACGGCACCCACCUAAGGCAAACGUUAUGGUGAAGGCAUAGUCAAGGGAGCGGCGAAAGUCACACAAACCGG [A120G C150U C169A U176C], the reverse-splicing fitness amounted to 0.126.

For the variant GUGCCUUGCGCCGGGAAACCACGCAAGGGAUGGUGUCAAAUUCGGCGAAACCUAAGCGCCCGCCCGGGCGUAUGGCAACGCGGAGCCAAGCUUCGGCGCCUGCGCCGAUGAAGGUGUAGAGACUAGACGGCACCCACCUAAGGCCAACGAUAUGGUGAAGGCAUAGUCUAGGGAGUGGCGAAAGUCACACAAACCGG [C82G A145C C150A C169U], the reverse-splicing fitness turned out to be 0.00875.

Regarding GUGCCUUGCGCCGGGAAACCACGCAAGGGAUGGUGUCAAAUUCGGCGAAACCUAAGCGCCCGCCCGGGCGUAUGGCAACGCCGAGCCAAGCUUCGGCGCCUGCGCCGAUGUAGGUGUAGGGACUAGACGGCACCCACCUAAGGCAAACGUUAUGGUGAAGGCAUAGUCCAGGGAGUGGCGAAAGUCACACAAACCGG [A111U A120G C150U], the reverse-splicing fitness stood at 0.0899.

Take GUGCCUUGCGCCGGGAAACCACGCAAGGGAUGGUGUCAAAUUCGGCGAAACCUAAGCGCCCGCCCGGGCGUAUGGCAACGCCGAGCCAAGCUUCGGCGCCUGCGCCGAUGUAGGUGUAGAGACUAGACGGCACCCACCUAAGGCCAACGGUAUGGUGAAGGCAUAGUCUAGGGAGUGGCGAAAGUCACACAAACCGG [A111U A145C C150G C169U]: the reverse-splicing fitness was determined as 0.0175.
